Data set [1] addresses T1, SmSpmHT (Solanum virginianum, UniProt A0A1I9J7Z8).
T1 construct: full-length ORF, 447 residues; N-terminal His-SUMO fusion from pRham N-His SUMO Kan, SUMO tag removed with SUMO Express Protease; bacterial expression
T1 sequence (A0A1I9J7Z8 1-447): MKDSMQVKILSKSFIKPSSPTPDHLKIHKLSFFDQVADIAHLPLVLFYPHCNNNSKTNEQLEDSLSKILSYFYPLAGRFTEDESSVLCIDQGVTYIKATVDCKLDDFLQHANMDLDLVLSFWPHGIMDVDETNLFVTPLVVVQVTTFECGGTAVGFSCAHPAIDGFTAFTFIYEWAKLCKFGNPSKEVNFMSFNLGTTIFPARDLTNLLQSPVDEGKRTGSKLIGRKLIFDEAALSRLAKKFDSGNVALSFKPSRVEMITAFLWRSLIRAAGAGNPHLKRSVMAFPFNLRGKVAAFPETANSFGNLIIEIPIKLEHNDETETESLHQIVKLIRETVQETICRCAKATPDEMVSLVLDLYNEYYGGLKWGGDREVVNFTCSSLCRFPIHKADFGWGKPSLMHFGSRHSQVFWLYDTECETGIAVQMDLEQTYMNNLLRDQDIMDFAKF
In words: spectrophotometric microplate assay. In kind it is biochemical. Particulars: 0.1 M Tris-HCl, 10 mM EDTA, pH 9.0, 30 °C.

Substrate in data set [2]: CC(C)(COP(=O)(O)OP(=O)(O)OC[C@H]1O[C@@H](n2cnc3c(N)ncnc32)[C@H](O)[C@@H]1OP(=O)(O)O)[C@@H](O)C(=O)NCCC(=O)NCCSC(=O)/C=C/c1ccc(O)cc1
In words: purified protein. It is filed as biochemical, Solanum richardii. Particulars: 2.5 mM spermine, 0.1 M Tris-HCl, 10 mM EDTA, pH 9.0, 30 °C, acyl donor varied 0 to 240 μM.

Substrate in data set [3]: COc1cc(/C=C/C(=O)SCCNC(=O)CCNC(=O)[C@H](O)C(C)(C)COP(=O)(O)OP(=O)(O)OC[C@H]2O[C@@H](n3cnc4c(N)ncnc43)[C@H](O)[C@@H]2OP(=O)(O)O)ccc1O
The experiment in a line: purified protein. It is filed as biochemical, Solanum richardii. Particulars: 2.5 mM spermine, 0.1 M Tris-HCl, 10 mM EDTA, pH 9.0, 30 °C, acyl donor varied 0 to 240 μM.

Substrate in data set [4]: CC(C)(COP(=O)(O)OP(=O)(O)OC[C@H]1O[C@@H](n2cnc3c(N)ncnc32)[C@H](O)[C@@H]1OP(=O)(O)O)[C@@H](O)C(=O)NCCC(=O)NCCSC(=O)/C=C/c1ccc(O)c(O)c1
In words: purified protein. In kind it is biochemical, Solanum richardii. Particulars: 2.5 mM spermine, 0.1 M Tris-HCl, 10 mM EDTA, pH 9.0, 30 °C, acyl donor varied 0 to 240 μM.

Consider `CC(C)(COP(=O)(O)OP(=O)(O)OC[C@H]1O[C@@H](n2cnc3c(N)ncnc32)[C@H](O)[C@@H]1OP(=O)(O)O)[C@@H](O)C(=O)NCCC(=O)NCCSC(=O)/C=C/c1ccc(O)c(O)c1` [caffeoyl-CoA], for which the spectrophotometric microplate assay entry in data set [1] (acyl donor, 120 μM, spermine 2.5 mM) was “The recombinant proteins showed the same substrate specificity, pH preference, and catalytic activity as SrSpmHT”.
Regarding `NCCCNCCCCNCCCN` [spermine], the spectrophotometric microplate assay result in data set [1] (acyl acceptor, 2.5 mM, hydroxycinnamoyl-CoA donor 120 μM) is “The recombinant proteins showed the same substrate specificity, pH preference, and catalytic activity as SrSpmHT”.

B1: SrSpmHT (Solanum richardii) (protein)
chain: MKDSMQVNILSKSFIKPSSPTPDHLKIHKLSFFDQVADIAHLPLVLFYPHCNNNSKTNEQLEDSLSKILSYFYPLAGRFTEDESSVLCIDQGVTYIKATVDCKLDDFLQHANMDLDLVLSFWPHGIMDVDETNLFVTPLVVVQVTTFECGGTAVGFSCAHPAIDGFTAFTFIYEWAKLCKFGNPSKEVNFMSFNLGTTIFPARDLTNLLQSPVDEGKRTGSKLIGRKLIFDEAALSRLAKKFDSGNVALSFKPSRVEMITAFLWRSLIRAAGAGNPHLKRSVMAFPFNLRGKVAAFPETANSFGNLIIEIPIKLEHNDETETESLHQIVKLIRETVQETICRCAKATPDEMVSLVLDLYNEYYGGLKWGGDREVVNFTCSSLCRFPIHKADFGWGKPSLMHFGSRHSQVFWLYDTECETGIAVQMDLEQTYMNNLLRDQDIIDFAKF
notes: full-length ORF, 447 residues; N-terminal His-SUMO fusion from pRham N-His SUMO Kan, SUMO tag removed with SUMO Express Protease
As a reminder, the Km is the concentration of substrate that gives half-maximal velocity. Usually Vmax stands for the top rate of the reaction or transport when substrate is in excess. One may read the kcat as the maximal rate divided by the concentration of active sites. A word on the kcat/Km: it is the second-order rate constant that governs catalysis at low substrate concentration. Regarding B1, in data set [2], the Michaelis constant (Km) came out at 49.0 ± 1.2 µM, the maximum rate (Vmax) stood at 8.15 ± 0.204 µmol/min/mg, the kcat is 8.5 ± 0.21 s⁻¹ and the kcat/Km stood at 173000 ± 1000 M⁻¹ s⁻¹. For the same molecule, in data set [3], the Km is 106.1 ± 9.0 µM, the maximal velocity (Vmax) was determined as 13.4 ± 0.48 µmol/min/mg, the catalytic constant (kcat) is 13.9 ± 0.5 s⁻¹ and the specificity constant (kcat/Km) came out at 132000 ± 6000 M⁻¹ s⁻¹. Further, in data set [4], the Michaelis constant (Km) came out at 478.4 ± 46.5 µM, the Vmax came to 68.8 ± 6.08 µmol/min/mg, the turnover number (kcat) turned out to be 71.5 ± 6.3 s⁻¹ and the kcat/Km came out at 150000 ± 1000 M⁻¹ s⁻¹.

Source of the values: PMC6580504, “A novel hydroxycinnamoyl transferase for synthesis of hydroxycinnamoyl spermine conjugates in plants” (BMC Plant Biology, 2019).
